Laboratory results reported in the Immune Epitope Database (IEDB).

Assays:
Experiment in all cases: IEDB peptide-MHC binding, purified MHC/competitive/radioactivity; filed as Kd, often an IC50 or EC50 that approximates it; ≥ and ≤ were set here for values at or beyond the usual limits of such assays
HLA-A*02:01 = settings: source organism: Vaccinia virus WR
HLA-A*02:02 = settings: source organism: Vaccinia virus WR
HLA-A*02:03 = settings: source organism: Vaccinia virus WR
HLA-A*02:06 = settings: source organism: Vaccinia virus WR
HLA-A*03:01 = settings: source organism: Vaccinia virus WR
HLA-A*11:01 = settings: source organism: Vaccinia virus WR
HLA-A*31:01 = settings: source organism: Vaccinia virus WR
HLA-A*33:01 = settings: source organism: Vaccinia virus WR
HLA-A*68:01 = settings: source organism: Vaccinia virus WR
HLA-A*68:02 = settings: source organism: Vaccinia virus WR
HLA-B*07:02 = target: HLA-B*07:02
HLA-B*35:01 = target: HLA-B*35:01
HLA-B*51:01 = target: HLA-B*51:01
HLA-B*53:01 = target: HLA-B*53:01
HLA-B*54:01 = target: HLA-B*54:01
HLA-B*18:01 = target: HLA-B*18:01
HLA-B*40:01 = target: HLA-B*40:01
HLA-B*40:02 = target: HLA-B*40:02
HLA-B*44:02 = target: HLA-B*44:02
HLA-B*44:03 = target: HLA-B*44:03
HLA-B*45:01 = target: HLA-B*45:01
HLA-B*15:03 = target: HLA-B*15:03
HLA-B*15:01 = settings: source organism: Vaccinia virus WR
HLA-A*01:01 = settings: source organism: Vaccinia virus WR
HLA-A*23:01 = settings: source organism: Vaccinia virus WR
HLA-A*24:02 = settings: source organism: Vaccinia virus WR
HLA-A*26:01 = settings: source organism: Vaccinia virus WR
HLA-A*29:02 = settings: source organism: Vaccinia virus WR
HLA-A*30:02 = settings: source organism: Vaccinia virus WR
HLA-A*30:01 = settings: source organism: Vaccinia virus WR
HLA-A*32:01 = settings: source organism: Vaccinia virus WR
HLA-B*08:01 = settings: source organism: Vaccinia virus WR
[1] = source organism: Vaccinia virus WR
[2] = source organism: Mammarenavirus machupoense
[3] = source organism: Mammarenavirus brazilense
[4] = source organism: Mammarenavirus lassaense
[5] = source organism: SARS coronavirus Tor2

In the case of SLTIKDSSNK, the Kd (HLA-A*02:01) is reported as ≥ 69.4 µM, the Kd (HLA-A*02:02) is reported as ≥ 70000 nM and the Kd (HLA-A*02:03) is reported as ≥ 70400 nM. The Kd (HLA-A*02:06) was ≥ 69800 nM, the Kd (HLA-A*03:01) was 9.78 µM and the Kd (HLA-A*11:01) was ≥ 25.3 µM. The Kd (HLA-A*31:01) was ≥ 70 µM, the Kd (HLA-A*33:01) was ≥ 70 µM and the Kd (HLA-A*68:01) was ≥ 52.7 µM. For the same sequence, the Kd (HLA-A*68:02) was ≥ 69800 nM, the Kd (HLA-B*07:02; [1]) was ≥ 52.3 µM and the Kd (HLA-B*35:01; [1]) was ≥ 46.5 µM. For the same sequence, the Kd (HLA-B*51:01; [1]) was ≥ 69.6 µM, the Kd (HLA-B*53:01; [1]) was ≥ 69.9 µM and the Kd (HLA-B*54:01; [1]) was ≥ 69.9 µM.

With PEIWLQLNTL the Kd (HLA-B*18:01; [2]) was 19.7 µM, the Kd (HLA-B*40:01; [2]) was 4.45 µM and the Kd (HLA-B*40:02; [2]) was 109 nM. The Kd (HLA-B*44:02; [2]) was 10.2 µM, the Kd (HLA-B*44:03; [2]) was 8.12 µM and the Kd (HLA-B*45:01; [2]) was 12.2 µM.

With IKFAAGIII the Kd (HLA-B*15:03; [1]) was 16 nM.

In the case of PDFNELFQL, the Kd (HLA-B*18:01; [3]) is reported as ≥ 77.5 µM, the Kd (HLA-B*40:01; [3]) is reported as ≥ 23.6 µM and the Kd (HLA-B*40:02; [3]) is reported as 1680 nM. For the same sequence, the Kd (HLA-B*44:02; [3]) was ≥ 29 µM, the Kd (HLA-B*44:03; [3]) was ≥ 22.9 µM and the Kd (HLA-B*45:01; [3]) was ≥ 77.7 µM.

Sequence MMSMYGKAF has a Kd (HLA-B*15:01) of 3.18 nM and a Kd (HLA-B*15:03; [1]) of 2.61 nM.

Work on KTSTLIFFV yielded a Kd (HLA-A*01:01) of 1880 nM, a Kd (HLA-A*02:02) of 1.38 nM and a Kd (HLA-A*02:03) of 156 nM. It also gave a Kd (HLA-A*02:06) of 1.76 nM, a Kd (HLA-A*23:01) of 9.12 µM and a Kd (HLA-A*24:02) of 6.6 µM. The Kd (HLA-A*26:01) was 4.81 µM, the Kd (HLA-A*29:02) was 2650 nM and the Kd (HLA-A*30:02) was 251 nM. The Kd (HLA-A*68:02) was 47.2 nM, the Kd (HLA-B*07:02; [1]) was ≥ 30.5 µM and the Kd (HLA-B*35:01; [1]) was ≥ 35.8 µM. The Kd (HLA-B*51:01; [1]) was 11.4 µM, the Kd (HLA-B*53:01; [1]) was 15 µM and the Kd (HLA-B*54:01; [1]) was 13.8 µM.

In the case of CPNSYDSIM, the Kd (HLA-B*07:02; [4]) is reported as 0.142 µM, the Kd (HLA-B*35:01; [4]) is reported as 0.00812 µM and the Kd (HLA-B*44:03; [4]) is reported as 7.57 µM. For the same sequence, the Kd (HLA-B*51:01; [4]) was 2.27 µM, the Kd (HLA-B*53:01; [4]) was 0.0419 µM and the Kd (HLA-B*54:01; [4]) was 1.59 µM.

SSVREVFYF was tested, and the Kd (HLA-B*15:03; [1]) was 123 nM.

For GEVLSLDKL, the Kd (HLA-B*18:01; [5]) was ≥ 77.5 µM, the Kd (HLA-B*40:01; [5]) was 0.0109 µM and the Kd (HLA-B*40:02; [5]) was 30.7 nM. It also gave a Kd (HLA-B*44:02; [5]) of 7.88 µM, a Kd (HLA-B*44:03; [5]) of 2.33 µM and a Kd (HLA-B*45:01; [5]) of 17.3 µM.

With SDNGILCPT the Kd (HLA-B*18:01; [2]) was ≥ 77.5 µM, the Kd (HLA-B*40:01; [2]) was ≥ 68.2 µM and the Kd (HLA-B*40:02; [2]) was 1330 nM. For the same sequence, the Kd (HLA-B*44:02; [2]) was ≥ 27.8 µM, the Kd (HLA-B*44:03; [2]) was ≥ 78.1 µM and the Kd (HLA-B*45:01; [2]) was ≥ 77.7 µM.

With KDPLITSGC the Kd (HLA-B*18:01; [4]) was ≥ 77.5 µM, the Kd (HLA-B*40:01; [4]) was 17.3 µM and the Kd (HLA-B*40:02; [4]) was 4500 nM. The Kd (HLA-B*44:02; [4]) was ≥ 77.9 µM, the Kd (HLA-B*44:03; [4]) was ≥ 78.1 µM and the Kd (HLA-B*45:01; [4]) was ≥ 77.1 µM.

IMALIVSIF gave a Kd (HLA-B*15:03; source organism: Vaccinia virus) of 4.53 nM.

For NLLCHIYSL, the Kd (HLA-A*30:01) was 56.3 nM, the Kd (HLA-A*32:01) was 231 nM and the Kd (HLA-B*08:01) was 0.307 nM. For the same sequence, the Kd (HLA-B*15:01) was 1930 nM and the Kd (HLA-B*15:03; [1]) was 2030 nM.
